In experiment [1] the target is T1, recombinant human FcγRI from R&D Systems (Cat#1257-FC-050) (human, UniProt P12314 16-292).
T1 construct: extracellular domain; Bought reagent; also called CD64
Put plainly: ELISA, recombinant human FcγRI. A general note: In an ELISA, binding on a coated surface is turned into a signal by an enzyme label.

For a further experiment, the target named is T2, FcγRI.
T2 construct: also called FcgRI; CD64
Put plainly: surface plasmon resonance; FcγRI immobilized (1000 µRIU), CRP injected at 42, 84, 169 and 338 nM. How it is done:
FcγRI (1000 μRIU) were immobilized CRP was injected @ 42 nM, 84 nM, 169 nM and 338 nM. Data are recorded as resonance units over time after injection.
On the technique in general: Surface plasmon resonance follows binding to a sensor surface in real time, without labels.

As usually defined, the Kd is the concentration at which binding is half-saturated.

T1 sequence (P12314 16-292): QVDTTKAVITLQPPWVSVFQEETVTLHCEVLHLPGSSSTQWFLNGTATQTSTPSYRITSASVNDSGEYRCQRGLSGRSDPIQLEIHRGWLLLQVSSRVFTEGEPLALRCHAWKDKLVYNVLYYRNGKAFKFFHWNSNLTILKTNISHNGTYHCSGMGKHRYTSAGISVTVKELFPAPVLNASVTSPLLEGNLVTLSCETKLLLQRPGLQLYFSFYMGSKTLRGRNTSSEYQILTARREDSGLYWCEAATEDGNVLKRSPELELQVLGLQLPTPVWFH
T2 sequence (P12314 16-292): as above

B1: C-reactive protein (CRP) (ligand)
chain: QTDMSRKAFVFPKESDTSYVSLKAPLTKPLKAFTVCLHFYTELSSTRGYSIFSYATKRQDNEILIFWSKDIGYSFTVGGSEILFEVPEVTVAPVHICTSWESASGIVEFWVDGKPRVRKSLKKGYTVGAEASIILGQEQDSFGGNFEGSQSLVGDIGNVNMWDFVLSPDEINTIYLGGPFSPNVLNWRALKYEVQGEVFTKPQLWP
notes: also called human CRP
Regarding B1, the binding result in experiment [1] is “binds”. In the experiment with FcγRI, this molecule registered a Kd of 183 nM.

The values above are taken from US20090298759A1 (published 2009).
